In patent US20220242939A1 (BIOARCTIC, published 2022):
Non-standard residues stand in square brackets, D forms with d. No end group written: not given here. Ahx = NCCCCCC(=O)O

T1: A199 N-terminal neo-epitope peptide AGQPLQE-Acp-C (SEQ ID NO:55) conjugated to BSA (human, not fully specified (residue 9); printed as AGQPLQE-Acp-C; also: C-terminal Cys conjugated to BSA carrier)
T1 construct: BSA carrier
T1 peptide: AGQPLQE[Ahx]C

T2: L198 N-terminal neo-epitope peptide LAGQPL-Acp-C (SEQ ID NO:52) conjugated to BSA (human, not fully specified (residue 8); printed as LAGQPL-Acp-C; also: C-terminal Cys conjugated to BSA carrier)
T2 construct: BSA carrier; also called L198-BSA peptide
T2 peptide: LAGQPL[Ahx]C

T3: A199 N-terminal neo-epitope peptide AGQPLQ-Acp-C (SEQ ID NO:51) conjugated to BSA (human, not fully specified (residue 8); printed as AGQPLQ-Acp-C; also: C-terminal Cys conjugated to BSA carrier)
T3 construct: BSA carrier; also called A199-BSA peptide
T3 peptide: AGQPLQ[Ahx]C


How the values were obtained:
[1] = target: T4, recombinant C-terminal ApoE fragment A199-HIS (ApoE-A199-H299-10xHIS) (human, UniProt P02649 217-317); assay: direct ELISA, A199-HIS coated at 0.1 µM
T4 construct: also called A199-HIS fragment
Description: (§1) Selectivity evaluation of purified monoclonal antibodies by direct ELISA: The direct ELISA described below was used to evaluate the binding selectivity of the purified monoclonal antibodies produced in Example 17.
(§2) The screening was performed according to standard ELISA protocols. Briefly, 1 μg/ml solutions of BSA-conjugated neo-epitope peptides and negative control peptide, and 0.1 μM recombinant C-terminal ApoE fragment and full-length ApoE (Abcam, cat. no. ab50243) were prepared by dilution in PBS. 50 μl/well were added to an ELISA half-area 96 well microtiter plate, and the plate was sealed with adhesive sealer and incubated over night at 4° C. After discarding the solution, the plates were blocked with 150 μl/well of protein-free blocking solution (Pierce) for 1 h at room temperature with shake (600-900 rpm). The plates were washed four times with washing buffer containing 0.28 mM NaH₂PO₄, 2.5 mM Na₂HPO₄, 150 mM NaCl, 0.1% TWEEN®-20 and 0.0075% Kathon CG. Purified monoclonal antibodies of interest were 3-fold serially diluted with a starting dilution at 3 μg/ml (mixed 1:2 with dilution buffer (PBS with 0.1% BSA and 0.05% TWEEN®-20)). An anti-ApoE C-terminal antibody was used as a reference antibody (ApoE E-8 mouse monoclonal, Santa Cruz Biotechnology, cat. no. sc-393302). 50 μl/well were added into the ELISA plates and incubated for 2 h at room temperature with shake (600-900 rpm). The plates were washed four times as described previously. […] After another wash (as described previously), 50 μl/well of K-Blue® aqueous substrate (Neogen) were added, and the reaction was stopped after 5-15 min with 50 μl/well of 0.5 M H₂SO₄. The optical density at 450 nm was read using an ELISA reader (Tecan).

[2] = target: T4, recombinant C-terminal ApoE fragment …; assay: SPR (Biacore 8K), A199-HIS amine-coupled on CM5, antibody as analyte, bivalent analyte fit (KD1)
[3] = target: T5, full-length ApoE in human brain extract from Alzheimer's disease patients (human, UniProt P02649 19-317); assay: Western blot of AD brain RIPA 2% SDS extract; anti-A199 antibody at 2 ug/ml as primary antibody
T5 construct: mature; Endogenous protein on Western blot or in solution (IP); also called ApoE full-length protein
T5 sequence (P02649 19-317): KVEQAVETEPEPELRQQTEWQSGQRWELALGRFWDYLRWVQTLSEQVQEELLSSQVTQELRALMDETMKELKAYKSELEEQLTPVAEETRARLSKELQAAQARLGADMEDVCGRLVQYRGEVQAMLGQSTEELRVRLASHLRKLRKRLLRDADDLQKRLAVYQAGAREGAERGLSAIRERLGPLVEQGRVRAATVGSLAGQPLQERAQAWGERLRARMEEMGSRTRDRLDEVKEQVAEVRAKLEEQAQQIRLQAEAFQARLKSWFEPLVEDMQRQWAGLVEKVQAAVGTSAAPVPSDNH
Description: RIPA 2% SDS brain extract containing approximately 60 μg total protein was mixed with 2×Laemmli sample buffer, boiled for 5 min at 95° C. and loaded onto SDS-PAGE gels (Bolt™ 12% Bis-Tris Plus 10 well, Thermo Fisher, cat. no. NW00120BOX). Gels were run for 30-40 min at 180 V, after which proteins were transferred from the gels onto nitrocellulose membranes using the Trans-Blot® Turbo™ system (Bio-Rad). […] Membranes were washed and incubated for 1 h at room temperature with the detection antibody anti-mouse-800CW (LI-COR, cat. no. 925-32210) diluted 1:25000 in Intercept® PBS Blocking Buffer (LI-COR) with 0.1% TWEEN®-20. Membranes were washed and images acquired using Odyssey® FC (LI-COR).

[4] = target: T4, recombinant C-terminal ApoE fragment …; assay: SPR (Biacore 8K), A199-HIS amine-coupled on CM5, antibody as analyte, bivalent analyte fit (ka1)
[5] = target: T1, A199 N-terminal neo-epitope peptide …; assay: direct ELISA after limiting dilution
[6] = target: T2, L198 N-terminal neo-epitope peptide …; assay: direct ELISA; proteins coated at 0.1 uM, BSA peptides at 1 ug/ml; antibody in 3-fold dilutions from 3000 ng/ml; blank reduced OD 450 nm
Description: as §1, §2

[7] = target: T6, recombinant full-length ApoE4 (aa 1-299; SEQ ID NO:45; Abcam cat. no. ab50243) (human, UniProt P02649 19-317); assay: as above
T6 construct: Bought protein; also called recombinant ApoE4 full-length protein
T6 sequence (P02649 19-317 C130R limits assumed): as the sequence (P02649 19-317) above, with C112R counted along it
Description: as §1, §2

[8] = target: T4, recombinant C-terminal ApoE fragment …; assay: SPR (Biacore 8K), A199-HIS amine-coupled on CM5, antibody as analyte, bivalent analyte fit (kd1)
[9] = target: T3, A199 N-terminal neo-epitope peptide …; assay: direct ELISA, A199-BSA peptide coated at 1 µg/ml
Description: as §1, §2

[10] = target: 28F2, recombinant IgG2c antibody; assay: inhibition ELISA: antigen in solution varied, antibody 28F2 at 0.05 µg/ml, plate coated with G200-BSA peptide
Sequence of 28F2, recombinant IgG2c antibody (VH, as listed by the source): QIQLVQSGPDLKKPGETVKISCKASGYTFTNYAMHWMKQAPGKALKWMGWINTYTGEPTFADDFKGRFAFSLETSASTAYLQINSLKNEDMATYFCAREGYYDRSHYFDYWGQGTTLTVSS
Description: […] of each synthetic ApoE peptide, recombinant C-terminal ApoE fragment G200-HIS and full-length ApoE4 were prepared by 4-fold dilution starting from 1000 ng/ml in 96 well storage plates (30 μl final volume). Each recombinant antibody to be tested was added (30 μl) to the serial dilutions of each of the synthetic ApoE peptides, G200-HIS or full-length ApoE4 at a final concentration of 0.05 μg/ml per well. Samples were pre-incubated for 45 min at room temperature with shaking (900 rpm).
(§3) The pre-incubated samples were transferred (50 μl/well) to the blocked ELISA plates, and plates were incubated for 25 min at room temperature without shaking. Plates were washed as described above. Alkaline phosphatase conjugated anti-mouse IgG detection antibody (Mabtech, cat. no. 3310-4) was diluted 1:1000 and added to each plate (50 μl/well). The plate was sealed and incubated with shaking (900 rpm) for 45 min at room temperature and subsequently washed as described above. Alkaline phosphatase substrate (50 μl/well) was added to the plate and the optical density was read every 15 min at a wavelength of 405 nm for up to 120 min. The IC50 values were determined from a log inhibitor concentration response curve (FIG. 17).

[11] = target: 17G4, recombinant IgG2c antibody; assay: inhibition ELISA: antigen in solution varied, antibody 17G4 at 0.05 µg/ml, plate coated with G200-BSA peptide
Sequence of 17G4, recombinant IgG2c antibody (VH, as listed by the source): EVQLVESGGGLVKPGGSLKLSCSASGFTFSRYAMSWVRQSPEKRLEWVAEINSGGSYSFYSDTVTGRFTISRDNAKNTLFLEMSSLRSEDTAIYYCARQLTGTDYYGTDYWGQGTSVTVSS
Description: as §3

[12] = target: 7C7, recombinant IgG2c antibody; assay: inhibition ELISA: antigen in solution varied, antibody 7C7 at 0.05 µg/ml, plate coated with G200-BSA peptide
Sequence of 7C7, recombinant IgG2c antibody (VH, as listed by the source, chain 1 of 2): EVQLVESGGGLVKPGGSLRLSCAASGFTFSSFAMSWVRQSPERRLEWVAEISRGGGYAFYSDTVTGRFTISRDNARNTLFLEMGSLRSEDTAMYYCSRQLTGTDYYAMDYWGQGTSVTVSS
Sequence of 7C7, recombinant IgG2c antibody (VL, as listed by the source, chain 2 of 2): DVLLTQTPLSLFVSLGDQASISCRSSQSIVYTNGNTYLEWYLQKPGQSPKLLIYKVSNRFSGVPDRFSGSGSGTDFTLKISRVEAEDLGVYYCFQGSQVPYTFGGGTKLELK
Description: as §3

[13] = target: T7, 7B10, recombinant IgG2c antibody; assay: inhibition ELISA: antigen in solution varied, antibody 7B10 at 0.05 µg/ml, plate coated with G200-BSA peptide
T7 construct: also called 7610
T7 sequence (VH, as listed by the source): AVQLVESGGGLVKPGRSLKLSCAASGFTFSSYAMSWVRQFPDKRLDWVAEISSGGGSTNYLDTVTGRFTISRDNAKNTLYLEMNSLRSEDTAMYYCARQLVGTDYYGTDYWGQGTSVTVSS
Description: as §3

[14] = target: 23D5, recombinant IgG2c antibody; assay: inhibition ELISA: antigen in solution varied, antibody 23D5 at 0.05 µg/ml, plate coated with G200-BSA peptide
Sequence of 23D5, recombinant IgG2c antibody (VH, as listed by the source): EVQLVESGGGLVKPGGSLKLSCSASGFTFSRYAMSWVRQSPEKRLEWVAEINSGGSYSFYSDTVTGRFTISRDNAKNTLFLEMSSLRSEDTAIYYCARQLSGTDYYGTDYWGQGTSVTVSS
Description: as §3

Row | EC50 [1] [ng/mL] | Kd [2] [nM] | binding result [3] | kon [4] [M⁻¹ s⁻¹] | binding result [5] | binding result [6] | binding result [7] | koff [8] [s⁻¹] | EC50 [9] [ng/mL] | IC50 [10] [nM] | IC50 [11] [nM] | IC50 [12] [nM] | IC50 [13] [nM] | IC50 [14] [nM] | Binder
1 | 1.8 | 137 | no binding (tested: 2 ug/ml (text)) | 150000 | binds | no binding (tested: 3000 ng/ml) | no binding (tested: 3000 ng/ml) | 0.0207 | 3.8 | – | – | – | – | – | 63F6, monoclonal anti-A199 antibody (antibody, IgG2b, V domains shown) VH: QVQLQQPGTELVKPGASVKLSCKASGYTFTNYWMHWVKQRPGQGLEWIGNINPRNGGTNYNEKFKSKATLTVDKSSSTDYMQLSSLTSEDSAVYYCARGLYDYDFDYWGQGTTLTVSS VL: DVLMTQTPLSLPVSLGDQASISCRSSQSIVHGNGNTYLQWFLQKPGQSPKLLIYKVSSRFSGVPDRFSGSGSGTDFTLKISRVEAEDLGVYYCFQGSHVPFTFGSGTKLEIK
2 | 3.5 | 83 | no binding (tested: 2 ug/ml (text)) | 180000 | binds | – | no binding (tested: 3000 ng/ml) | 0.0172 | 4.4 | – | – | – | – | – | 67G3, monoclonal anti-A199 antibody (antibody, IgG2b, V domains shown) VH: QVQLQQPGTELVKPGASVKLSCKASGYTFTRYWLHWVKQRPGQGLEWIGNINPTNGGANYNEKFKNKATLTVDKSSSTAYMQLSSLTSEDSAVYYCSRGAYDYDCDYWGQGTTLTVSS VL: DVLMTQTPLSLPVSLGDQASISCRSSQRIVHSNGNIYLQWYLQKPGQSPKLLIYKVSNRFSGVPDRFSGSGSGTDFTLKISRVEAEDLGVYYCFQGSHVPYTFGGGTKLEIK
3 | – | – | – | – | – | – | – | – | – | 2.4 | 3 | 2.8 | 2.8 | 2.4 | recombinant C-terminal ApoE fragment G200-HIS (ApoE-G200-H299-10xHIS) (other, also called G200-HIS fragment) GQPLQERAQAWGERLRARMEEMGSRTRDRLDEVKEQVAEVRAKLEEQAQQIRLQAEAFQARLKSWFEPLVEDMQRQWAGLVEKVQAAVGTSAAPVPSDNHHHHHHHHHHH
